Source: paper PMC7334588

Target: RSC chromatin remodeling complex (S. cerevisiae) (UniProt P32597)
Assay: BLI

UniProt P32597, sequence (P32597 whole entry, looked up, one chain of several): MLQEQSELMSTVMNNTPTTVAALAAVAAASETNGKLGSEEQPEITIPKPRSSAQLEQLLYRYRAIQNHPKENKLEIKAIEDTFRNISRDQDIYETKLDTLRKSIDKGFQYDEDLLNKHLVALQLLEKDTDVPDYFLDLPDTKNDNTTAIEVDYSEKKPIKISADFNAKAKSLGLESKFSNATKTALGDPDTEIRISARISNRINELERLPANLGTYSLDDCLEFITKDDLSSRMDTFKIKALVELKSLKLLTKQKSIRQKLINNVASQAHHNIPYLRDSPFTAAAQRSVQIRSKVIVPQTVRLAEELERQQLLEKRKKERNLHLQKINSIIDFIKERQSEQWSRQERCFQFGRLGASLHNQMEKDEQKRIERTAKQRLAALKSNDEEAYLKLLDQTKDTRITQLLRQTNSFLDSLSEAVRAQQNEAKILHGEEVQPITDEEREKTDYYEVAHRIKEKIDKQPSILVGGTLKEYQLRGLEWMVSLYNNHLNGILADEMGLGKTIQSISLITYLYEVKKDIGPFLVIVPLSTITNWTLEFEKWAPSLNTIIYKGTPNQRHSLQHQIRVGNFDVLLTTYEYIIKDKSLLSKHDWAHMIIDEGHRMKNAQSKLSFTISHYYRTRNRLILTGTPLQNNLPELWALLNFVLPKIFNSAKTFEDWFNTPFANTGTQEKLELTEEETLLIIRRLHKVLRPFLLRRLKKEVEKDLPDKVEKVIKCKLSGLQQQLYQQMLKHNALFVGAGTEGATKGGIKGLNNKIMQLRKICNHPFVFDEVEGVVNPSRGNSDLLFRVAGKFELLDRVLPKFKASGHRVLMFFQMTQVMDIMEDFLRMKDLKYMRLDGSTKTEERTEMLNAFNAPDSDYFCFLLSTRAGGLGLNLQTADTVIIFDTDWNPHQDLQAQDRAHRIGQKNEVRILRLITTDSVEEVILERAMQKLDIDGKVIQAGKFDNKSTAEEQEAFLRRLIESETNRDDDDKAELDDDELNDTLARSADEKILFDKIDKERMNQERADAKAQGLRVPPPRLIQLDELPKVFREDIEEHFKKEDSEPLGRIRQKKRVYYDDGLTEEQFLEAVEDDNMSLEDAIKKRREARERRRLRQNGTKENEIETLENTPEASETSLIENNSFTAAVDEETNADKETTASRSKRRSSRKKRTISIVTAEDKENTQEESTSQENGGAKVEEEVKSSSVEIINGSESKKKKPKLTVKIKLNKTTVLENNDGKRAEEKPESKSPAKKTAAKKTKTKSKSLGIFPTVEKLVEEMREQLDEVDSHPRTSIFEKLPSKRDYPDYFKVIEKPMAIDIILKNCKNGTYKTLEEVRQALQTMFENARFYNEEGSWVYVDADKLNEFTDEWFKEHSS

Substance: SUMOylated nucleosome with an in-frame fusion of SUMO to H2B (from UniProt P02281 6-126) (complex)
- fold higher affinity than for unmodified nucleosomes: 2 fold
